Experiment: label from the status in PepcDB records

Sequence | protein production
MGHHHHHHSHMKEDQKNKIPEDILKQLLSVDPETVYASGYASWQEGDYSRAVIDFSWLVMAQPWSWRAHIALAGTWMMLKEYTTAINFYGHALMLDASHPEPVYQTGVCLKMMGEPGLAREAFQTAIKMSYADASWSEIRQNAQKMVDTLIA | failed
MLLVMGAHESGLDRARLQSLYEQLVATNEDETEKLAASGHSTGLVASEWARFLAPFDFGYRLVALQRESKRVAAALTRALYGIDTSGASEHDPLWAVEHRVLPVPVTDRLLFCEMRFLLVLALSRRLWMRLERVDPLGQENPFPRDAEIIERVEDLARQSRERLALLAERSPEALNAGKQEAHDCIEDLRTKETRAAEQVAGFAQALGDAALLEKVWHALVDEIAQNRQLNHALLQTLCQWVLMLIGADTEVPSSASCSDE | not failed
ALKLMQYIGDAIGTIRDPQELFRTVTDKLRLLFAFDSAVIITIDRERREASVFFEMLRFELPEQLRHQTRSIAGTWLEGHLDDRTVTVASIARDIPSFGADGAPLLWTLHELGMRQIVLSPLRSGGRVIGFLSFVSAEEKLWSDGDKSLLSGVSSSIAIAVSNALAYEELRQRE | not failed
MARKTAQSKRGVFNMDRLTSMAVFVKAVDLGSFAAAAEALGLSGPMVGKHVRSLEDRLGVQLINRTTRRQSLTEFGYVYYERCRVVLAEAQAADALASDQLSEPRGKLRVTMPVHFGRHCVTPVLLELARKYPALELDLSFNDRIIDLAEDGFDLSIRTGVLEDRAGLIARRVARQPMIVCASPSYLESHGCPEAPEDLAQHAAVVYRRSGPVSPWLFPRPGQSSSEVTPLHRFRLDDLDAIADAAARGLGLAWLPYWLVRGRIEAGTLVRLLPEQPPFLYDCHAVWLQTPHLPLKVRVAVDALAAQLPSFMT | failed
MDRLAHMQMFVAVVEAGSITAAAERMNLAKSAVSRRLAELEAGLGVSLIQRTTRRLNLTESGRTYYARCVAILADVEDAEAEVSQGHGALRGRLKVALPQAFGLLHLAPLIQTFMKRHPDVRLELDFNDRQVDLMQEGFDLAIRIATLADSTLIARRLAAIPHRVVASPGYLARRGTPRAAADLTQHDCLAYSNVRDPGLWSYRDPGGEPGQVRVVVRLAASSGEFLLQAAIADEGLVLLPAFYLHAALRSGQLSEVLADHRWPEPAAYAVYPPTRHLSARAHAFIDFLAGHLGGAGEPPAGDEVAPTLAPNTSAG | failed
MTWLIISGLVVGALLGFVMQRTRFCLAGGFRDMYIQKSNKMFYALLIAISVQSIGLLLLTSTRLVEIPESTYPIIGTVIGSFIFGLGIIMAGGCATGTWYRAGEGLIGSWMALIAYAFTSAATKFGLLLPLMNGLNKPTNVNTSMSQTTGIPTWVFVIVLIVITLFFVVKTLRKPKFAVPKLKQKFTGIRHYLFEKKYHPFVAAIAVGLIALLAWPVSESTGRMYGLGITTPSANLVQFFVTGDLKLLDWGVFLVLGIFFGSYIAAKGAKEFKWRLPDKKTIRNSIIGGVLMGFGASVAGGCSIGNGLVETATMSWKGWIALASMILGAWTMSYFVFIRPMKKAQSQTSNTKVSSQTQTS | failed
MTNKRVVQTFLATSALFLAMSGMSARAQDASAPAAGAPAPSAAAPMHHHGSGFKKLDTNGDGMVSRDEAKGHRWLEDHFDEIDTNHDGQISKDELAAWHKTHAGEMRGKMQARLDAKFKAADKNGDGALTREEMQAGLPKLARHFDEIDANHDGKVTEDEIRAFMKARHDAHRAQHGTPAAAVTPGGPSATKGE | failed
MTRVKSKLDEELSSPWFYTVCTMGGMLSAGTTHLAITPLDVLKVNMQVNPVKYNSIPSGFSTLLREHGHSYLWRGWSGKLLGYGVQGGCRFGLYEYFKTLYSDVLPNHNRTSIYFLSSASAQIFADMALCPFEAIKVRVQTQPMFAKGLLDGFPRVYRSEGLAGFHRGLFPLWCRNLPFSMVMFSTFEQSVEFIYQKIIQKRKQDCSKAQQLGVTCLAGYTAGAVGTIISNPADVVLSSLYNNKAKNVLQAVRNIGFVGLFTRSLPVRITIVGPVITLQWFFYDAIKVLSGFPTSGGVKKPVDAAKLSV | failed
KRGRSVLVLDHAKKPGRKILISGGGRCNFTNYDVSASNYLCQNPHFVKSALSQYTNWDFISMVSKHGIEFEERDHGQLFCVDAFTAKDIVKMLLAECDMPNIQQRYQCDVHTIEKTEEGFRLHAGTEPVECESLVVATGGLSMPKLGATPFGYKVAEQ | failed
MSLHAAAVGPSVLPDLREQVEQIIAEARRQGASACEVAVSLEQGLSTSVRQGEVETVEFNRDQGFGITLYAGQRKGSASTSATGEAAIRETVAAALAIARHTSEDECAGLADAALMARELPELDLYHPWSLSPEQAVERALACEAAAFAADKRVTKADGTTLNTHQGCRVYGNSHGFIGGYASTRHSLSCVMIAEGEGQMQRDYWYDVNRRGEALASAESIGRRAAERAASRLGARPVQTAEVPVLFAPEIAVGLFGHFLGAISGGSLYRKSSFLEGALGQRLFPEWLSIDERPHLVGALGSASFDSDGLATYAKPFVENGELVSYVLGTYSGRKLGLPSTANAGGVHNLFVSHGDEDQAALIRRMERGLLVTELMGQGVNLVTGDYSRGAAGYWVENGEIQFPVQEVTIAANLRDLFRRIVAVGKDIERRGNLHTGSVLVESMMVAGR | not failed
MRNLSRRIQSHQIRLRPPPFGAKRPVRRSESTSPPPRRRLIVGKRNRSAQVQYSMSHGLTHLSFWPLLFATLALTHVTIVSVTIFLHRHQAHRALSLHPLASHFFRFWLWLTTATVTKEWVSIHRKHHARCETPDDPHSPQCLGIFTVLLRGWMLYRKEARNTATLAQFGNGTPDDWLERKLYSRFPDLGITLMLALNLLLFGIGGLGVWAVQMLWIPFWAAGVVNGLGHHLGYRNFETPDASTNLWPIGFIIGGEELHNNHHAYPASAKFSSRRWEIDIGWLYIRLMTLLKLAKIRNMPPKTIIHTAEPSVDMDTVKAVLRNRAHVLSLYGRRVIVPVLRSEQAKSPKAGRRLLRQTRPLLLREYIKADPAAWHNFSRMLEDSQTLATIFQFKQQLKAVWTDSFTSHEERLERLRAWCLQAKQSDLPWLQHFADTLSGYRLQPAH | failed
MMIKIIREMPHGVAALCLIQAFSTFSYAVQYSSLALFITKQLGIANLSANSIVGLFLSFSYIFQLIGGVIGSRFISNRLLFVTTILIQNMGLFFLAQANPSLLNIGLSLFMVGSGLNVTSSNSMLTQCFIPQDDRRESAFFLSYAGMNVGYCIGYIACGFFDYSNQYQYLLYASILTNSIALLIIIKNWAYLGDKNFPLPNLTKRNWYFIKNILAIAFITFLIPFMRVCFEFANFCNGLVIITCLFMFLIIFILGLKQKSSSDRKKMMAYLILAISSVLFWMIYLTGPMGVTLFVKNNVDKHLFSFELATQWIKNINPVVIIFGAPIMSMLINKLKAKGFHVSAPVQFSCSFVFLALSFLCLIFGIICSNSYGYISIYWIIGHHILQGMSELLLGPVGYALIGRIAPPKLQGILMGTWMLVIGVAASFSQYFSNAMVQSESVDPLITNQDFLTAFKQLGLWSLLCAALLYFVSGKLTRIINGTKDNKSVNESKALPMPYSN | failed
MSLEEVIEQLREANEPVPVPLELPDEDQLVEIEEQLFINIPFVFKEFLLTVSDVVYGSLEPVTVTDPQSHTYLPEVCATAWDLGVPRELIPICQDGEDYYCVEEDGTVLLWSAEEELVTEESWESVWHWARDVWLESEGHHHHHH | not failed
MANLGMTGVADGNNSEQTYLGQINYQDQTITKASAKKLNREIDLQRASQLTLWAMPMVGMYQSYNSTIALFDLQEGDAPIIGLHEGYDGVYPFLTANVTTPYTISLVDLSETGPYVVNIPAGSIFGVANNAWQEPIKEIGSGNKETLLFVGPGQEYPKDFDGEVIQSDTNQILYFYRVLGVGAEAEKLKTAVTAYKLSDVANPPQVKFVIYKPKASDADVTIATQPRGMAYWEVVNQYIQNEPMADRDRFFYAWLKDLGIEKGKAFNPTPYQKEILLEGVNTGMAMAQSLAFNKTKKKFSSSLYGSDSGWEGVLAGMDPKIDLDTYSMINERTAYTYEAVTTSAGMIVENPGHGSAYIGSYYDADGNALMGGKNYTLHIEPNPPAANFWSITVYDIKNRLIIRNEIKRSDLSSRSESLVMNSDGSVDLYFGPEAPEGKEGNWIQSNDGESYFMYLRLYGPEQEYFDQTYPMNKIDKTKLEHHHHHH | failed
MSLSTARIMLVDDHPIVREGYRRLIERRPGYAVVAEAADAGEAYRLYRETTPDIVVMDLTLPGPGGIEATRHIRQWDGAARILIFTMHQGSAFALKAFEAGASGYVTKSSDPAELVQAIEAILAGRRAMSPDIAQEIAEERVEGREGHHHHHH | not failed
